Sequences and labels used below:
B1: Hex-[Cys(3MeBn)-Pro-Pro-Thr-Glu-Phe-Cys]-Asp-Pamb-Arg-NH2 (peptide)
peptide: Hexanoyl-CPPTEFCD[4Amb]R-NH2
modifications: linker 1-7 via mXylylene
SMILES: CCCCCC(=O)N[C@H]1CSCc2cccc(c2)CSC[C@@H](C(=O)N[C@@H](CC(=O)O)C(=O)NCc2ccc(C(=O)N[C@@H](CCCNC(=N)N)C(N)=O)cc2)NC(=O)[C@H](Cc2ccccc2)NC(=O)[C@H](CCC(=O)O)NC(=O)[C@H]([C@@H](C)O)NC(=O)[C@@H]2CCCN2C(=O)[C@@H]2CCCN2C1=O
notes: also called 3BP-3301
B2: Hex-[Cys(3MeBn)-Pro-Pro-Thr-Glu-Phe-Cys]-Asp-Omp-Arg-NH2 (peptide)
peptide: Hexanoyl-CPPTEFCD[Omp]R-NH2
modifications: linker 1-7 via mXylylene; reading uncertain; also: printed as Hex-[Cys(3MeBn)-Pro-Pro-Thr-Glu-Phe-Cys]-Asp-Omp-Arg-NH2
notes: also called 3BP-3302
B3: Hex-[Cys(3MeBn)-Pro-Pro-Thr-Glu-Phe-Cys]-Asp-His-Ppa-arg-Ttds-Lys(DOTA)-NH2 (peptide)
peptide: Hexanoyl-CPPTEFCDH[4Pal][dR][Ttds″]K(DOTA)-NH2
modifications: linker 1-7 via mXylylene
SMILES: CCCCCC(=O)N[C@H]1CSCc2cccc(c2)CSC[C@@H](C(=O)N[C@@H](CC(=O)O)C(=O)N[C@@H](Cc2c[nH]cn2)C(=O)N[C@@H](Cc2ccncc2)C(=O)N[C@H](CCCNC(=N)N)C(=O)NCCCOCCOCCOCCCNC(=O)CCC(=O)N[C@@H](CCCCNC(=O)CN2CCN(CC(=O)O)CCN(CC(=O)O)CCN(CC(=O)O)CC2)C(N)=O)NC(=O)[C@H](Cc2ccccc2)NC(=O)[C@H](CCC(=O)O)NC(=O)[C@H]([C@@H](C)O)NC(=O)[C@@H]2CCCN2C(=O)[C@@H]2CCCN2C1=O
notes: also called 3BP-3277
B4: Hex-[Cys(3MeBn)-Pro-Pro-Thr-Glu-Phe-Cys]-Asp-Arg-NH2 (peptide)
peptide: Hexanoyl-CPPTEFCDR-NH2
modifications: linker 1-7 via mXylylene
SMILES: CCCCCC(=O)N[C@H]1CSCc2cccc(c2)CSC[C@@H](C(=O)N[C@@H](CC(=O)O)C(=O)N[C@@H](CCCNC(=N)N)C(N)=O)NC(=O)[C@H](Cc2ccccc2)NC(=O)[C@H](CCC(=O)O)NC(=O)[C@H]([C@@H](C)O)NC(=O)[C@@H]2CCCN2C(=O)[C@@H]2CCCN2C1=O
notes: also called 3BP-3299
B5: Pentyl-SO2-[Cys(3MeBn)-Pro-Pro-Thr-Gln-Phe-Cys]-Asp-NH2 (peptide)
peptide: Pentanesulfonyl-CPPTQFCD-NH2
modifications: linker 1-7 via mXylylene
SMILES: CCCCCS(=O)(=O)N[C@H]1CSCc2cccc(c2)CSC[C@@H](C(=O)N[C@@H](CC(=O)O)C(N)=O)NC(=O)[C@H](Cc2ccccc2)NC(=O)[C@H](CCC(N)=O)NC(=O)[C@H]([C@@H](C)O)NC(=O)[C@@H]2CCCN2C(=O)[C@@H]2CCCN2C1=O
notes: also called 3BP-3514
B6: Ac-[Cys(3MeBn)-Pro-Pro-Thr-Glu-Phe-Cys]-Asp-His-Phe-Arg-Asp-NH2 (peptide)
peptide: Ac-CPPTEFCDHFRD-NH2
modifications: linker 1-7 via mXylylene
SMILES: CC(=O)N[C@H]1CSCc2cccc(c2)CSC[C@@H](C(=O)N[C@@H](CC(=O)O)C(=O)N[C@@H](Cc2c[nH]cn2)C(=O)N[C@@H](Cc2ccccc2)C(=O)N[C@@H](CCCNC(=N)N)C(=O)N[C@@H](CC(=O)O)C(N)=O)NC(=O)[C@H](Cc2ccccc2)NC(=O)[C@H](CCC(=O)O)NC(=O)[C@H]([C@@H](C)O)NC(=O)[C@@H]2CCCN2C(=O)[C@@H]2CCCN2C1=O
notes: also called 3BP-3202
B7: Hex-[Cys(3MeBn)-Pro-Pro-Thr-Glu-Phe-Cys]-Asp-Gab-Arg-NH2 (peptide)
peptide: Hexanoyl-CPPTEFCD[GABA]R-NH2
modifications: linker 1-7 via mXylylene
SMILES: CCCCCC(=O)N[C@H]1CSCc2cccc(c2)CSC[C@@H](C(=O)N[C@@H](CC(=O)O)C(=O)NCCCC(=O)N[C@@H](CCCNC(=N)N)C(N)=O)NC(=O)[C@H](Cc2ccccc2)NC(=O)[C@H](CCC(=O)O)NC(=O)[C@H]([C@@H](C)O)NC(=O)[C@@H]2CCCN2C(=O)[C@@H]2CCCN2C1=O
notes: also called 3BP-3300
B8: Hex-[Cys(3MeBn)-Pro-Pro-Thr-Gln-Phe-Cys]-Asp-Ttds-Lys(DOTA)-NH2 (peptide)
peptide: Hexanoyl-CPPTQFCD[Ttds″]K(DOTA)-NH2
modifications: linker 1-7 via mXylylene
SMILES: CCCCCC(=O)N[C@H]1CSCc2cccc(c2)CSC[C@@H](C(=O)N[C@@H](CC(=O)O)C(=O)NCCCOCCOCCOCCCNC(=O)CCC(=O)N[C@@H](CCCCNC(=O)CN2CCN(CC(=O)O)CCN(CC(=O)O)CCN(CC(=O)O)CC2)C(N)=O)NC(=O)[C@H](Cc2ccccc2)NC(=O)[C@H](CCC(N)=O)NC(=O)[C@H]([C@@H](C)O)NC(=O)[C@@H]2CCCN2C(=O)[C@@H]2CCCN2C1=O
notes: also called 3BP-3395
B9: Hex-[Cys(3MeBn)-Pro-Pro-Thr-Glu-Phe-Cys]-Asp-Ttds-Lys(DOTA)-NH2 (peptide)
peptide: Hexanoyl-CPPTEFCD[Ttds″]K(DOTA)-NH2
modifications: linker 1-7 via mXylylene
SMILES: CCCCCC(=O)N[C@H]1CSCc2cccc(c2)CSC[C@@H](C(=O)N[C@@H](CC(=O)O)C(=O)NCCCOCCOCCOCCCNC(=O)CCC(=O)N[C@@H](CCCCNC(=O)CN2CCN(CC(=O)O)CCN(CC(=O)O)CCN(CC(=O)O)CC2)C(N)=O)NC(=O)[C@H](Cc2ccccc2)NC(=O)[C@H](CCC(=O)O)NC(=O)[C@H]([C@@H](C)O)NC(=O)[C@@H]2CCCN2C(=O)[C@@H]2CCCN2C1=O
notes: also called 3BP-3396

From US20230212549A1 (3B PHARMACEUTICALS, published 2023) come the findings set out here.

Numbered stars: 1 amine (or outer) side, 2 acyl side, 3 side chain; on linkers, the order of the positions; unused ones are H or OH. Bridge positions count the residues as written; N and C are the ends. Square brackets hold non-standard residues; d marks the D form. Primed or numbered codes have the meaning given here. * marks the point of attachment. Ttds″ = 1,13-diamino-4,7,10-trioxatridecan-succinamic acid spacer, O=C(CCC(=O)[*:2])NCCCOCCOCCOCCCN[*:1]; DOTA = O=C(O)CN1CCN(CC(=O)O)CCN(CC(=O)*)CCN(CC(=O)O)CC1; mXylylene = c1cc(C[*:1])cc(C[*:2])c1; Pentanesulfonyl = CCCCCS(=O)(=O)*; 4Pal = N[C@@H](Cc1ccncc1)C(=O)O; 4Amb = NCc1ccc(C(=O)O)cc1; Hexanoyl = CCCCCC(=O)*; NH(CH2)5NH2 = NCCCCCN*; Omp = not defined here; GABA = NCCCC(=O)O A value given as a limit tells only on which side of the number the result lay.

For one assay, the target named is Recombinant human FAP (R&D systems, #3715-SE) (human, UniProt Q12884 26-760). Kind of assay: cell-based or functional assay.
B1: the “pIC50 Category (Activity)” value is > 8 pIC50. Still for that read-out and setting: to B2 belongs > 8 pIC50; to B3, > 8 pIC50; to B4, > 8 pIC50.

The target of the next assay is T1, fibroblast activation protein (FAP) on FAP-expressing human WI-38 fibroblasts (human, UniProt Q12884 1-760).
T1 construct: also called human FAP
Kind of assay: competitive FACS, WI-38 cells, vs Cy5 tracer m3; A = pIC50 >8.0.
On to B1, for which the “pIC50 Category (FACS)” value was > 8 pIC50. On the same count and under the same terms, to B2 belongs > 8 pIC50; to B3, > 8 pIC50. B4: the “pIC50 Category (FACS)” value was > 8 pIC50.

In a further assay the target is T2, Recombinant human FAP (R&D systems, #3715-SE) (human, UniProt Q12884 26-760).
T2 construct: bought; in SPR captured on immobilized anti-FAP antibody MAB3715; also called rhFAP; human recombinant FAP
The assay is described as follows: SPR (Biacore T200), FAP captured on anti-FAP antibody, single cycle kinetics. A general note: SPR reads the build-up and loss of mass on a sensor chip optically.
As to B5, the “pKD Category” value was > 8 pKD. On the same count and under the same terms, the result for B6 reads > 8 pKD.

As to B7, the “pKD Category” value is > 8 pKD. Same read-out and setting: to B8 belongs > 8 pKD. For B9, the “pKD Category” value was > 8 pKD. Same read-out and setting: the result for Hexanoyl-CPPTQFCD-{NH(CH2)5NH2-DOTA′} (linker 1-7 via mXylylene, also called 3BP-3403) [Hex-[Cys(3MeBn)-Pro-Pro-Thr-Gln-Phe-Cys]-Asp-Ape-NH-DOTA′] reads > 8 pKD.
